The target in assay [1] is casein (Hammerstein, Merck).
Assay [2] addresses succinyl-L-alanyl-L-alanyl-L-prolyl-L-phenylalanyl-p-nitroanilide (not provided).
The target in assay [3] is casein (Hammerstein, Merck). The source holds these as a separate data set.

Take PB92 protease mutant M216Q (enzyme): the Specific activity relative to PB92 protease (%), ADU method in assay [1] was 37%. Also, the kcat/Km (Km in mM and kcat in 1/s) in assay [2] came to 3000 M⁻¹ s⁻¹.
As to PB92 protease mutant E134K (enzyme), in assay [1], the Specific activity relative to PB92 protease (%), ADU method came to 95%. The kcat/Km (Km in mM and kcat in 1/s) in assay [2] amounted to 49000 M⁻¹ s⁻¹.
As for “PB92 protease mutant M117L, M216Q (enzyme)”, the Specific activity relative to PB92 protease (%), ADU method in assay [1] came to 27%. Further, in assay [2], the kcat/Km (Km in mM and kcat in 1/s) is 2000 M⁻¹ s⁻¹.
On to “PB92 protease mutant [G116V, S126F, P127L, S128T] (enzyme)”, for which, in assay [2], the kcat/Km (Km in mM and kcat in 1/s) came to 19000 M⁻¹ s⁻¹.
As to “PB92 protease mutant [G116V, S126V, P127M] (enzyme)”, the Specific activity relative to PB92 protease (%), ADU method in assay [1] stood at 69%. Besides, the kcat/Km (Km in mM and kcat in 1/s) in assay [2] was found to be 98000 M⁻¹ s⁻¹.
In the same order, the values of PB92 protease mutant S160D (enzyme) are 73% and 12000 M⁻¹ s⁻¹.
In the same order, the values of PB92 protease M216-oxidized (enzyme) are 50% and 9000 M⁻¹ s⁻¹.
With PB92 protease mutant N212D (enzyme), the Specific activity relative to PB92 protease (%), ADU method in assay [1] came out at 100%. In addition, the kcat/Km (Km in mM and kcat in 1/s) in assay [2] came to 86000 M⁻¹ s⁻¹.
For PB92 protease mutant M216S (enzyme), the Specific activity relative to PB92 protease (%), ADU method in assay [1] was 40%. Also, the kcat/Km (Km in mM and kcat in 1/s) in assay [2] was 5000 M⁻¹ s⁻¹.
Take “PB92 protease mutant M169I, M216S (enzyme)”: the Specific activity relative to PB92 protease (%), ADU method in assay [1] stood at 44%.
In the case of “PB92 protease mutant [G116V, S126G, P127Q, S128I] (enzyme)”, in assay [1], the Specific activity relative to PB92 protease (%), ADU method was 95%. The kcat/Km (Km in mM and kcat in 1/s) in assay [2] worked out at 13000 M⁻¹ s⁻¹.
Consider PB92 protease mutant N212S (enzyme), for which the Specific activity relative to PB92 protease (%), ADU method in assay [1] was 85%.
The same measure, in the same setting: with “PB92 protease mutant [S160D, M216S] (enzyme)” the figure was 17%.
As for “PB92 protease mutant M117L, M216S (enzyme)”, the Specific activity relative to PB92 protease (%), ADU method in assay [1] stood at 36%. The kcat/Km (Km in mM and kcat in 1/s) in assay [2] is 8000 M⁻¹ s⁻¹.
Regarding “PB92 protease (serine protease of Bacillus nov. spec. PB92) (enzyme)”, in assay [3], the turnover number (kcat) measured on casein was determined as 90 s⁻¹. For the same substance, the kcat/Km (Km in mM and kcat in 1/s) in assay [2] was found to be 102000 M⁻¹ s⁻¹.
For the substance “PB92 protease mutant [S160D, M216Q] (enzyme)”, the Specific activity relative to PB92 protease (%), ADU method in assay [1] is 12%.
Regarding “PB92 protease mutant [G116V, S126L, P127N, S128V] (enzyme)”, the Specific activity relative to PB92 protease (%), ADU method in assay [1] stood at 81%. The kcat/Km (Km in mM and kcat in 1/s) in assay [2] amounted to 65000 M⁻¹ s⁻¹.
“PB92 protease mutant [G116V, S126V, P127E, S128K] (enzyme)”: the Specific activity relative to PB92 protease (%), ADU method in assay [1] amounted to 43%. Further, the kcat/Km (Km in mM and kcat in 1/s) in assay [2] came out at 86000 M⁻¹ s⁻¹.
In the same order, the values of “PB92 protease mutant [S160G, N212D] (enzyme)” are 76% and 18000 M⁻¹ s⁻¹.
In the same order, the values of PB92 protease mutant M216C (enzyme) are 36% and 30000 M⁻¹ s⁻¹.
“PB92 protease mutant G116V, S126N, P127H, S128I (enzyme)”: the Specific activity relative to PB92 protease (%), ADU method in assay [1] turned out to be 115%.
For the substance “PB92 protease mutant G116V, S126Y, P127G, S128L (enzyme)”, in assay [1], the Specific activity relative to PB92 protease (%), ADU method was determined as 69%.
Same read-out and setting: as for “PB92 protease mutant [G116V, S126H, P127Y] (enzyme)”, the figure is 73%; as for “PB92 protease mutant [G116V, S126R, P127S, S128P] (enzyme)”, 81%.
With “PB92 protease mutant [G116V, S126L, P127Q, S128A] (enzyme)”, the Specific activity relative to PB92 protease (%), ADU method in assay [1] came out at 62%. In assay [2], the kcat/Km (Km in mM and kcat in 1/s) is 57000 M⁻¹ s⁻¹.
On to PB92 protease mutant S160C (enzyme), for which the Specific activity relative to PB92 protease (%), ADU method in assay [1] worked out at 48%. Moreover, the kcat/Km (Km in mM and kcat in 1/s) in assay [2] was 21000 M⁻¹ s⁻¹.
In the same order, the values of “PB92 protease mutant [S126M, P127A, S128G] (enzyme)” are 115% and 180000 M⁻¹ s⁻¹.
Take “PB92 protease mutant [A166D, M169I] (enzyme)”: the Specific activity relative to PB92 protease (%), ADU method in assay [1] amounted to 100%.
As to PB92 protease mutant S160K (enzyme), in assay [1], the Specific activity relative to PB92 protease (%), ADU method is 47%. Besides, the kcat/Km (Km in mM and kcat in 1/s) in assay [2] was 11000 M⁻¹ s⁻¹.

For the origin of these results see patent publication US6271012.
